Assays:
[1] = target: T1, TROP-2 (EGP-1), human, on tumor cell lines (human, UniProt P09758 27-323); test: cell binding on TROP-2-positive PC-3 human prostate carcinoma cells, three separate occasions
T1 construct: whole, on cells; 36-kDa cell-surface glycoprotein; also called epithelial glycoprotein-1
T1 sequence (looked up): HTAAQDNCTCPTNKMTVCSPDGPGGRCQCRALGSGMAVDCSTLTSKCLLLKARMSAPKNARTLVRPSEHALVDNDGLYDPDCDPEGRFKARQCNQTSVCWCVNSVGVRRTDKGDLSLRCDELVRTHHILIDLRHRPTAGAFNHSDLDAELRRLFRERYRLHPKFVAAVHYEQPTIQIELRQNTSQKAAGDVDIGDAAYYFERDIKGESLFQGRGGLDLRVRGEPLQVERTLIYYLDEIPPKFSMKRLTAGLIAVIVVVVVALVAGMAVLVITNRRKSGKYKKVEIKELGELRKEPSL

[2] = target: Human neonatal receptor (FcRn) (human, UniProt P55899 24-297, limits assumed); test: SPR (BIACore), low density FcRn biosensor chip, three runs of five dilutions
Chain of Human neonatal receptor (FcRn) (P55899 24-297 limits assumed): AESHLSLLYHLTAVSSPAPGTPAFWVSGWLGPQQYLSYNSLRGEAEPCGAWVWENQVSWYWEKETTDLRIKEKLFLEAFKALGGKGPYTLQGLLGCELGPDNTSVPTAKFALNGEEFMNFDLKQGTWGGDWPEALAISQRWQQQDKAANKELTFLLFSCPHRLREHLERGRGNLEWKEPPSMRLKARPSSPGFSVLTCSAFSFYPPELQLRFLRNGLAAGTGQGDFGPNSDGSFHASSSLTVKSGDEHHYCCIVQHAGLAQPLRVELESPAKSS

B1: hRS7 IgG (humanized anti-TROP-2 IgG1 monoclonal antibody, unconjugated) (antibody)
chain 1: not shown
chain 2: DIQLTQSPSSLSASVGDRVSITCKASQDVSIAVAWYQQKPGKAPKLLIYSASYRYTGVPDRFSGSGSGTDFTLTISSLQPEDFAVYYCQQHYITPLTFGAGTKVEIKRTVAAPSVFIFPPSDEQLKSGTASVVCLLNNFYPREAKVQWKVDNALQSGNSQESVTEQDSKDSTYSLSSTLTLSKADYEKHKVYACEVTHQGLSSPVTKSFNRGEC
Kd [1]: 0.564 nM | Kd [2]: 192 nM

Reference: US20180296689A1 (published 2018)
